Results: PMC4441819 (Cell, 2015)

Molecular target: T1, HA A/Solomon Islands/03/2006 globular head (Influenza A virus A/Solomon …)
T1 chain: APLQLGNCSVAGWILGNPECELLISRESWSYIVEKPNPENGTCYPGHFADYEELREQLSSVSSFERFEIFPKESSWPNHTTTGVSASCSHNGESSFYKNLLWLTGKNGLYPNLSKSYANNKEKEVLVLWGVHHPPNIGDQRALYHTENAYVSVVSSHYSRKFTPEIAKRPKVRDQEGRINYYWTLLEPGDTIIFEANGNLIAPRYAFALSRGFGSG
Assay: BLI

B1: CH67 Fab, critical dipeptide VD changed to ID (Fab, V domains shown)
VH: QVQLVQSGAEVRKPGASVKVSCKASGYTFTDNYIHWVRQAPGQGLEWMGWIHPNSGATKYAQKFEGWVTMTRDTSISTVYMELSRSRSDDTAVYYCARAGLEPRSIDYYFYGLDVWGQGTAVTVSS
VL: QSALTQPPSVSVAPGQTATITCGGNNIGRKRVDWFQQKPGQAPVLVVYEDSDRPSGIPERFSDSNSGTTATLTISRVEAGDEADYYCQVWDSDSDHVVFGGGTKLTVL
- Kd: 1790 ± 120 nM
- kon: 42400 M⁻¹ s⁻¹
